{
  "source": "patent US20240285756A1",
  "about": "“METHOD AND COMPOSITION FOR INDUCING TOLERANCE” (ZELARION MALTA LIMITED, priority 2021, published 2024)",
  "origin": "cited, not measured here",
  "molecules": {"B1": {"name": "siplizumab: humanized IgG1 kappa monoclonal antibody against human CD2; humanized version of rat antibody BTI-322 (antibody, V domains shown)", "VH": "QVQLVQSGAEVQRPGASVKVSCKASGYIFTEYYMYWVRQAPGQGLELVGRIDPEDGSIDYVEKFKKKVTLTADTSSSTAYMELSSLTSDDTAVYYCARGKFNYRFAYWGQGTLVTVSS", "VL": "DVVMTQSPPSLLVTLGQPASISCRSSQSLLHSSGNTYLNWLLQRPGQSPQPLIYLVSKLESGVPDRFSGSGSGTDFTLKISGVEAEDVGVYYCMQFTHYPYTFGQGTKLEIK"}},
  "biological_target": "T1, CD2 (Homo sapiens, UniProt P06729)",
  "T1 sequence (P06729 25-351)": "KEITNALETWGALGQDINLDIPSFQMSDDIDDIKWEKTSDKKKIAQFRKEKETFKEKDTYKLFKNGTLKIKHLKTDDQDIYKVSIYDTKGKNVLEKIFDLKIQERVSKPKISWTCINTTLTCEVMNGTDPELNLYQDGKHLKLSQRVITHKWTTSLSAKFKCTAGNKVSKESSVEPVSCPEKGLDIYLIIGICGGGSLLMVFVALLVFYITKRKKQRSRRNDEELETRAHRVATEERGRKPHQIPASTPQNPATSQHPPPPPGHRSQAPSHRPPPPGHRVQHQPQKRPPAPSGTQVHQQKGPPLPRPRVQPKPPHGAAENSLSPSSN",
  "settings": "literature value, Branco et al., Transplantation 1999; assay not further specified",
  "data": [
    {"molecule": "B1", "values": [
      {"measurement": "IC50", "result": "~1", "unit": "nM"}
    ]}
  ]
}
